# In US20110318339A1 (FABRUS, published 2011):
# T1: rHuman Erythropoietin R/Fc Chimera, CF (Cat# 963-ER) (human, UniProt P19235 25-250)
# T1 construct: Bought from R&D Systems; also called EPO R/Fc; Epo R/Fc chimera
# T1 sequence (looked up): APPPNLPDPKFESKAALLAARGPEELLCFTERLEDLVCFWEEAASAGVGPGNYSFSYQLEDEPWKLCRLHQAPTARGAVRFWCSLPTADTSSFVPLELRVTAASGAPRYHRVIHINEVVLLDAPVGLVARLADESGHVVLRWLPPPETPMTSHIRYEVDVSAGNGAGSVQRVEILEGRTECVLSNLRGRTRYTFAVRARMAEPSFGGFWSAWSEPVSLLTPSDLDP
# What was measured:
# [1] = target: T2, rHuman CD44/Fc Chimera, CF (Cat# 3660-CD) (human, UniProt P16070 21-220); test: Multispot ECL; Fab 8.1 nM
# T2 construct: Bought from R&D Systems
# Method: (§1) An 150 μl aliquot of 1% Bovine Serum Albumin (BSA) in Tris-buffered Saline Tween (TBST) was added to each well and allowed to incubate for 30 min at 20° C. followed by washing and tap drying to completely remove any residual solution. Subsequently, a 12.5 μl aliquot of 1% BSA TBST was added to each well followed by the addition of a 12.5 μl aliquot of a purified Fab. The plate was sealed and incubated for 1 hour at 20° C. with shaking.
# (§2) Detection antibodies were prepared by individually conjugating both goat anti-human Kappa light chain polyclonal antibody (K3502-1MG, Sigma-Aldrich) and goat anti-human Lambda light chain polyclonal antibody (L1645-1 mL, Sigma-Aldrich) with Ruthenium (II) tris-bipyridine-(4-methylsulfone)-N-hydroxysuccinimide (SULFO-TAG NHS-ester, Meso Scale Discovery) according to the manufacturer's instructions. TAG-detection antibody at 25 μl was added to each well and allowed to incubate for 1 hour at 20° C. with shaking. Finally, 15 μl of Read Buffer P with Surfactant (Cat # R92PC-1, Meso Scale Discovery) was added to each well. The electrochemiluminescence was measured using a Sector Imager 2400 (Meso Scale Discovery). Data was analyzed by comparing the ECL signals for an antigen to the blank of each well. A signal to blank ratio of 4 or more was considered a “Hit” Fab.
# (§3) To confirm a “Hit” from the initial Multispot ECL screening, a Fab concentration dependent titration was carried out to determine the Fab-antigen binding affinity.
# [2] = target: T3, rHuman IGF-1 sR, (IGF-1 sR), CF (Cat# 391-GR) (human, UniProt P08069 31-932); test: Multispot ECL; Fab 8.1 nM
# T3 construct: Bought from R&D Systems; also called insulin-like growth factor-1 soluble receptor
# Method: as §1, §2, §3
# [3] = target: T4, rHuman ErbB2/Fc Chimera, CF (Cat# 1129-ER) (human, UniProt P04626 23-652); test: Multispot ECL; Fab 8.1 nM
# T4 construct: Bought from R&D Systems; also called human epidermal growth factor 2 receptor (ErbB2)
# Method: as §1, §2, §3
# [4] = target: T5, Recombinant Human DLL4 (Cat# 1506-D4/CF) (human, UniProt Q9NR61 27-529); test: Multispot ECL; Fab 32.5 nM
# T5 construct: Bought from R&D Systems; also called rHuman DLL4; hDLL4
# Method: as §1, §2, §3
# [5] = target: T6, rHuman HGF R/c-MET/Fc Chimera, CF (Cat# 358-MT/CF) (human, UniProt P08581 25-932); test: Multispot ECL; Fab 32.5 nM
# T6 construct: Bought from R&D Systems; also called HGF R/Fc; hepatocyte growth factor receptor (HGF R/c-Met)
# Method: as §1, §2, §3
# [6] = target: T7, rHuman Notch-1/Fc Chimera, CF (Cat# 3647-TK) (human, UniProt P46531 19-526); test: Multispot ECL; Fab 32.5 nM
# T7 construct: Bought from R&D Systems
# Method: as §1, §2, §3
# [7] = target: T1, rHuman Erythropoietin R/Fc Chimera, CF …; test: Multispot ECL; Fab 32.5 nM
# Method: as §1, §2, §3
# [8] = target: T2, rHuman CD44/Fc Chimera, CF (Cat# …); test: Multispot ECL; Fab 32.5 nM
# Method: as §1, §2, §3
# [9] = target: T3, rHuman IGF-1 sR, (IGF-1 sR), CF (Cat# …); test: Multispot ECL; Fab 32.5 nM
# Method: as §1, §2, §3
# [10] = target: T8, rHuman EGF R/Fc Chimera, CF (Cat# 344-ER) (human, UniProt P00533 25-645); test: Multispot ECL; Fab 32.5 nM
# T8 construct: Bought from R&D Systems; also called epidermal growth factor receptor (EGF R)
# Method: as §1, §2, §3
# [11] = target: T4, rHuman ErbB2/Fc Chimera, CF (Cat# …); test: Multispot ECL; Fab 32.5 nM
# Method: as §1, §2, §3
# [12] = target: T5, Recombinant Human DLL4 (Cat# 1506-D4/CF); test: Multispot ECL; Fab 130 nM
# Method: as §1, §2, §3
# [13] = target: T6, rHuman HGF R/c-MET/Fc Chimera, CF (Cat# …); test: Multispot ECL; Fab 130 nM
# Method: as §1, §2, §3
# [14] = target: T7, rHuman Notch-1/Fc Chimera, CF (Cat# …); test: Multispot ECL; Fab 130 nM
# Method: as §1, §2, §3
# [15] = target: T1, rHuman Erythropoietin R/Fc Chimera, CF …; test: Multispot ECL; Fab 130 nM
# Method: as §1, §2, §3
# [16] = target: T2, rHuman CD44/Fc Chimera, CF (Cat# …); test: Multispot ECL; Fab 130 nM
# Method: as §1, §2, §3
# [17] = target: T3, rHuman IGF-1 sR, (IGF-1 sR), CF (Cat# …); test: Multispot ECL; Fab 130 nM
# Method: as §1, §2, §3
# [18] = target: T8, rHuman EGF R/Fc Chimera, CF (Cat# …); test: Multispot ECL; Fab 130 nM
# Method: as §1, §2, §3
# [19] = target: T4, rHuman ErbB2/Fc Chimera, CF (Cat# …); test: Multispot ECL; Fab 130 nM
# Method: as §1, §2, §3
binder,measurement,setting,value
"Fab VH1-8_IGHD2-2*01_IGHJ6*01 & L12_IGKJ1*01 (Fab, V domains shown) VH: QVQLVQSGAEVKKPGASVKVSCKASGYTFTSYDINWVRQATGQGLEWMGWMNPNSGNTGYAQKFQGRVTMTRNTSISTAYMELSSLRSEDTAVYYCARGGYCSSTSCYADYYYYYGMDVWGQGTTVTVSS VL: not shown",ECL signal,[1],528
same,ECL signal,[2],518
same,ECL signal,[3],557
same,ECL signal,[4],2990
same,ECL signal,[5],525
same,ECL signal,[6],706
same,ECL signal,[7],673
same,ECL signal,[8],573
same,ECL signal,[9],561
same,ECL signal,[10],645
same,ECL signal,[11],556
same,ECL signal,[12],7740
same,ECL signal,[13],1880
same,ECL signal,[14],1760
same,ECL signal,[15],2150
same,ECL signal,[16],1750
same,ECL signal,[17],1970
same,ECL signal,[18],1750
same,ECL signal,[19],1530
